Publication PMC8908270, “Multimodal regulation of myosin VI ensemble transport by cargo adaptor protein GIPC” (The Journal of Biological Chemistry, 2022)
Values belong to the molecule of their own block, whether it stands above or below them.

B1: GIPC MIR, C-terminal SNAP-tagged (domain or fragment, human, UniProt O14908 261-333, looked up)
chain: EEKAIEKVDDLLESYMGIRDTELAATMVELGKDKRNPDELAEALDERLGDFAFPDEFVFDVWGAIGDAKVGRY
modifications: benzylguanine-labeled DNA oligo on the SNAP tag (DNA origami scaffold assay)
B2: Myosin VI FL-SNAP (natural protein, human, UniProt Q9UM54 1-1294, looked up)
chain: MEDGKPVWAPHPTDGFQMGNIVDIGPDSLTIEPLNQKGKTFLALINQVFPAEEDSKKDVEDNCSLMYLNEATLLHNIKVRYSKDRIYTYVANILIAVNPYFDIPKIYSSEAIKSYQGKSLGTRPPHVFAIADKAFRDMKVLKMSQSIIVSGESGAGKTENTKFVLRYLTESYGTGQDIDDRIVEANPLLEAFGNAKTVRNNNSSRFGKFVEIHFNEKSSVVGGFVSHYLLEKSRICVQGKEERNYHIFYRLCAGASEDIREKLHLSSPDNFRYLNRGCTRYFANKETDKQILQNRKSPEYLKAGSMKDPLLDDHGDFIRMCTAMKKIGLDDEEKLDLFRVVAGVLHLGNIDFEEAGSTSGGCNLKNKSAQSLEYCAELLGLDQDDLRVSLTTRVMLTTAGGTKGTVIKVPLKVEQANNARDALAKTVYSHLFDHVVNRVNQCFPFETSSYFIGVLDIAGFEYFEHNSFEQFCINYCNEKLQQFFNERILKEEQELYQKEGLGVNEVHYVDNQDCIDLIEAKLVGILDILDEENRLPQPSDQHFTSAVHQKHKDHFRLTIPRKSKLAVHRNIRDDEGFIIRHFAGAVCYETTQFVEKNNDALHMSLESLICESRDKFIRELFESSTNNNKDTKQKAGKLSFISVGNKFKTQLNLLLDKLRSTGASFIRCIKPNLKMTSHHFEGAQILSQLQCSGMVSVLDLMQGGYPSRASFHELYNMYKKYMPDKLARLDPRLFCKALFKALGLNENDYKFGLTKVFFRPGKFAEFDQIMKSDPDHLAELVKRVNHWLTCSRWKKVQWCSLSVIKLKNKIKYRAEACIKMQKTIRMWLCKRRHKPRIDGLVKVGTLKKRLDKFNEVVSVLKDGKPEMNKQIKNLEISIDTLMAKIKSTMMTQEQIQKEYDALVKSSEELLSALQKKKQQEEEAERLRRIQEEMEKERKRREEDEKRRRKEEEERRMKLEMEAKRKQEEEERKKREDDEKRIQAEVEAQLARQKEEESQQQAVLEQERRDRELALRIAQSEAELISDEAQADLALRRSLDSYPVSKNDGTRPKMTPEQMAKEMSEFLSRGPAVLATKAAAGTKKYDLSKWKYAELRDTINTSCDIELLAACREEFHRRLKVYHAWKSKNKKRNTETEQRAPKSVTDYDFAPFLNNSPQQNPAAQIPARQREIEMNRQQRFFRIPFIRPADQYKDPQSKKKGWWYAHFDGPWIARQMELHPDKPPILLVAGKDDMEMCELNLEETGLTRKRGAEILPRQFEEIWERCGGIQYLQNAIESRQARPTYATAMLQSLLK
modifications: Cy3-conjugated (single-molecule TIRF assay); benzylguanine-labeled DNA oligo on the SNAP tag (nanotube and origami assays)

Tests used:
[1] = target: mCerulean (mCer)-tagged myosin VI CBD (human) (UniProt Q9UM54); assay: FRET or BRET; bimolecular FRET in solution; CBD-mCer held constant at 30 nM, increasing GIPC MIR–mCit titrated; excitation 430 nm; ΔFRET fit to a hyperbolic dose–response; three protein preparations
Myosin VI FL-SNAP = target: B2; assay: cell-based or functional assay
[2] = target: B1; assay: cell-based or functional assay

Kd [1]: 0.12 µM
Molecule: mCitrine (mCit)-tagged GIPC MIR (from UniProt O14908 261-333) (domain or fragment)

Molecule: B1
actin gliding speed in the DNA nanotube assay (Myosin VI FL-SNAP patterned at 14 or 28 nm spacing), with 2 μM GIPC MIR against without (Myosin VI FL-SNAP): 2.5 fold

Molecule: B2
speed of DNA origami scaffolds on single actin filaments, myosin VI recruited through GIPC MIR against direct attachment [2]: 2.3 fold
